Our source for the band density (Intensity Density) of co-precipitated FLAG-tagged receptor (Intensity Density), binding coefficient (percent of transfected cells co-labelled for the soluble partner) and fluorescence intensity of bound soluble Ncam1b, transfected over untransfected cells values is publication PMC7841142.

In test [1] the target is Ncam1a, Myc- and 6x His-tagged (complete coding sequence), in Hek293 cells (zebrafish). Description: co-IP; Hek293 cells co-transfected with Myc/His-tagged Ncam1a or Ncam1b and FLAG-tagged Fgfr1a-IIIb or -IIIc; lysates precipitated with anti-His antibody and ProteinA beads, blotted with biotinylated FLAG-antibody; band density by Fiji, three independent experiments.
The target in test [2] is Ncam1b, Myc- and 6x His-tagged (complete coding sequence), in Hek293 cells (zebrafish). Described as above.
Test [3] addresses Ncam1b, membrane-bound, Myc- and 6x His-tagged (complete coding sequence), on CHO-K1 cells (zebrafish). Description: immunostaining of cells or tissue; cell overlay assay: transfected CHO-K1 cells (membrane-bound His-tagged protein) on fibronectin-coated coverslips incubated with 20 μg/ml soluble Fc-tagged protein for 1 h at room temperature, washed, fixed, stained with anti-His and anti-hFcγ; read out as binding coefficient (percent of transfected cells co-labelled) and as fluorescence intensity of transfected vs. untransfected cells.

Test [4] has as its target Fgfr1a-IIIb, membrane-bound, Myc- and 6x His-tagged (complete coding sequence, exon 9.1 variant), on CHO-K1 cells (zebrafish). The description is as above.
Test [5] has as its target T1, Fgfr1a-IIIc, membrane-bound, Myc- and 6x His-tagged (complete coding sequence), on CHO-K1 cells (zebrafish), Q90Z00.
T1 chain: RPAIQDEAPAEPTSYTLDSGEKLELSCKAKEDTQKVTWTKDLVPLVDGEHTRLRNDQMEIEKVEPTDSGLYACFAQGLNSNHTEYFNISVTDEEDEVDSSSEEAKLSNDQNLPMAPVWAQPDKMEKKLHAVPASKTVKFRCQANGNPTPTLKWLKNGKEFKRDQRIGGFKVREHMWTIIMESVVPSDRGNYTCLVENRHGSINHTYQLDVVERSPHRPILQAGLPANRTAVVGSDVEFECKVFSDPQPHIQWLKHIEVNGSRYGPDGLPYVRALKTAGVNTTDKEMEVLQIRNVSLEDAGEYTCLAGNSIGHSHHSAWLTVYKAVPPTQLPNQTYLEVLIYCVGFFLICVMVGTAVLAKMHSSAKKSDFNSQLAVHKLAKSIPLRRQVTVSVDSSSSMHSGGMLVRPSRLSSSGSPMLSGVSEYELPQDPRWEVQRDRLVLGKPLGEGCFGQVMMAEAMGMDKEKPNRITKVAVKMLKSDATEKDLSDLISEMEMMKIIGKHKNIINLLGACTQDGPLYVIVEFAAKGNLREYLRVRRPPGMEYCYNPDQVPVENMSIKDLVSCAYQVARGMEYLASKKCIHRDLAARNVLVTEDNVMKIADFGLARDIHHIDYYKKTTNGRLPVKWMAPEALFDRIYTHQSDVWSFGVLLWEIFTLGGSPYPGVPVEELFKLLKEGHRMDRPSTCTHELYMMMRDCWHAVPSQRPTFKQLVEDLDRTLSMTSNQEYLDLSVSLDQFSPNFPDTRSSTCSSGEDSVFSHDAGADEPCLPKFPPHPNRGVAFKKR
Description: immunostaining of cells or tissue; cell overlay assay: transfected CHO-K1 cells (membrane-bound His-tagged protein) on fibronectin-coated coverslips incubated with 20 μg/ml soluble Fc-tagged protein for 1 h at room temperature, washed, fixed, stained with anti-His and anti-hFcγ; read out as binding coefficient (percent of transfected cells co-labelled) and as fluorescence intensity of transfected vs. untransfected ….

Where “and” joins values, the source holds several entries; their conditions need not be identical. Equal values may be shown once.

Sequence of Ncam1a, Myc- and 6x His-tagged (complete coding sequence), in Hek293 cells (zebrafish) (main, as listed by the source): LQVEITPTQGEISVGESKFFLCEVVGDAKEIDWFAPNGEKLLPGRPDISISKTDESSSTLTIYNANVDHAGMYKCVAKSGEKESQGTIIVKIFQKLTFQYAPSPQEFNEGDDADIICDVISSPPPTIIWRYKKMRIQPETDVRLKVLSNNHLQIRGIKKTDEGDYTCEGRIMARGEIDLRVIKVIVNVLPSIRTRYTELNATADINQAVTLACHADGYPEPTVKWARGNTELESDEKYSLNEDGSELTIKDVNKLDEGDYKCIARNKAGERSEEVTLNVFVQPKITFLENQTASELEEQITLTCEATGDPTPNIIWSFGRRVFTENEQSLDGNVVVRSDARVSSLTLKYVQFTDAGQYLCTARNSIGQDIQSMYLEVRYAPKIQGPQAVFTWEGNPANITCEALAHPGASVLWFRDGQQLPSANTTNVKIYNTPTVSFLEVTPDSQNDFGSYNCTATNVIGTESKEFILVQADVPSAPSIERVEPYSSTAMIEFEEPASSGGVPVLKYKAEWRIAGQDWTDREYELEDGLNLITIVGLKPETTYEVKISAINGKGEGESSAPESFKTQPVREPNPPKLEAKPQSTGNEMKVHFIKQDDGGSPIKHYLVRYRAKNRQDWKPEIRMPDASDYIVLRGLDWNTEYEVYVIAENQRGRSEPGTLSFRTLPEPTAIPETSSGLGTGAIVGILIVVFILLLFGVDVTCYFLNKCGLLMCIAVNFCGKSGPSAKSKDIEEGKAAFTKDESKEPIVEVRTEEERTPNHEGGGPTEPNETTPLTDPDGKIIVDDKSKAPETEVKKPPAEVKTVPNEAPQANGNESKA

As for “Fgfr1a-IIIb, FLAG-tagged (complete coding sequence), in Hek293 cells (receptor)”, the band density (Intensity Density) of co-precipitated FLAG-tagged receptor (Intensity Density) in test [1] is 89500; in test [2], 170000 and 203000.
For the molecule “Fgfr1a-IIIc, FLAG-tagged (complete coding sequence), in Hek293 cells (from UniProt Q90Z00 27-810) (receptor)”, the values for the band density (Intensity Density) of co-precipitated FLAG-tagged receptor (Intensity Density) in test [1] and in test [2] were 117000 and 138000, respectively.
Turning to “soluble Fgfr1a-IIIb-Fc (extracellular part of Fgfr1a-IIIb with hIgG-Fc-Tag) (Fc fusion)”, the binding coefficient (percent of transfected cells co-labelled for the soluble partner) in test [3] was determined as 90%.
Still for that read-out and setting: the figure for “soluble Fgfr1a-IIIc-Fc (extracellular part of Fgfr1a-IIIc with hIgG-Fc-Tag) (from UniProt Q90Z00 27-363) (Fc fusion)” is 60%.
Regarding “soluble Ncam1b-Fc (extracellular part of Ncam1b with hIgG-Fc-Tag) (Fc fusion)”, in test [4], the binding coefficient (percent of transfected cells co-labelled for the soluble partner) was determined as 90% and the fluorescence intensity of bound soluble Ncam1b, transfected over untransfected cells stood at 80 % higher.

B1: soluble Ncam1b-Fc (extracellular part of Ncam1b with hIgG-Fc-Tag) (Fc fusion)
chain: LQVDITPAHGEISVGESRFFLCEVIGGAKEIDWFAPAGEKIEPGRPDISVIRNDETSSTLTIYNAKVDNAGTYRCVASSGDQDAEATVNLKIYQKITFTNVPSPQEFTEGDNAIIVCDVISSPPPTVLWKYKGAKIQFDKDVRFKTLSNNHLQIRGIRKTDEGVYTCEGRIKARGEVDFRSIKVVVNVLPTIRIRQAETNATADMGFSTLLACDPDGFPEPIVTWRRNNAPLESGNKYSFNEDGSEMTVLDVTKLDEGDYTCIAKNKAGESEQELSLKVFVQPKITYLESQTTTEMDEQVTLTCEATGDPTPTITWSFGTRVFTEGEQASWTRPEQHKGPDGEVLVRSDARVSSLTLKYPQYTDAGQYLCTARNAIGETVQPVSLEVRYAPKILGSVAVYTWEGNPANISCEVLAHPSDVSITWLRDGFQLPNANTSNIKIHNTPSASYLEVNPESQSDFGNYNCTASNEIGTESREFIMIPADVPSAPSIGEVQPYSSTAQVLFEEPESTGGVPVLKYRAEWRAVGRGKWVQRVYEVKDGLSSVTVTGLKPETDYEVKMSAINGKGEGDSSPSMVFKTEHVQGEPSPPILEGTLQPKGNSLKVKWIKQDDGGSPITHYLVRYKAREDSEWKPEIRLPSGSEYVMLIGLDWDTEYDVFVVAENQQGKSKPGTLTFRTSSEPTATTDSMEDGPGLNTG
modifications: not checked
For the molecule B1, the binding coefficient (percent of transfected cells co-labelled for the soluble partner) in test [5] was 60%.
